Target: T1, HLA-A*02:01 (peptide-receptive MHC class I monomer after UV cleavage of the UV-sensitive ligand) (human)
T1 construct: MHC monomers loaded by UV-ligand exchange and captured on streptavidin plates
Assay: UV ligand-exchange ELISA; exchange yield grade (+ >=10%, ++ >=20%, +++ >=50%, ++++ >=75%)
In short: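 UV-exchange pMHC monomers, 100-fold diluted → streptavidin capture 1 h 37 °C → HRP anti-β2m 2 ug/ml 1 h 37 °C → TMB, A450. Yield from HLA-A*02:01/MLA-001 monomer standard curve, 15-500 ng/ml. Only stably bound peptides keep β2m-containing complexes intact.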

Row | Binder | peptide exchange yield [%] | binding result
1 | SLLGNSPVL [SLLGNSPVL (SEQ ID NO: 51)] | ≥ 75 | –
2 | VLLEDVDAAFL [VLLEDVDAAFL (SEQ ID NO: 52)] | ≥ 75 | –
3 | DIFDAMFSV [DIFDAMFSV (SEQ ID NO: 54)] | – | binds
4 | GLQDLLFSL [GLQDLLFSL (SEQ ID NO: 56)] | 50 to 75 | –
5 | LQIGDFVSV [LQIGDFVSV (SEQ ID NO: 57)] | ≥ 75 | –
6 | RLHREVAQV [RLHREVAQV (SEQ ID NO: 59)] | 50 to 75 | –
7 | SLLIDVITV [SLLIDVITV (SEQ ID NO: 60)] | 50 to 75 | –
8 | TLITLPLLFL [TLITLPLLFL (SEQ ID NO: 6)] | 50 to 75 | –
9 | ALAPYLDLL [ALAPYLDLL (SEQ ID NO: 62)] | ≥ 75 | –
10 | ALIEEAYGL [ALIEEAYGL (SEQ ID NO: 63)] | 50 to 75 | –
11 | NLTDVSPDL [NLTDVSPDL (SEQ ID NO: 65)] | 50 to 75 | –
12 | LLATVNVAL [LLATVNVAL (SEQ ID NO: 67)] | ≥ 75 | –
13 | TLLAFPLLL [TLLAFPLLL (SEQ ID NO: 69)] | ≥ 75 | –
14 | VLLDYVGNVQL [VLLDYVGNVQL (SEQ ID NO: 71)] | ≥ 75 | –
15 | TLQEETAVYL [TLQEETAVYL (SEQ ID NO: 72)] | 20 to 50 | –
16 | YLGEEYPEV [YLGEEYPEV (SEQ ID NO: 73)] | 50 to 75 | –

Row | Binder | peptide exchange yield [%] | binding result
17 | AMKEEKEQL [AMKEEKEQL (SEQ ID NO: 79)] | 20 to 50 | –
18 | ALYAVIEKA [ALYAVIEKA (SEQ ID NO: 8)] | 50 to 75 | –
19 | FLMDDNMSNTL [FLMDDNMSNTL (SEQ ID NO: 83)] | 50 to 75 | –
20 | FLQELQLEHA [FLQELQLEHA (SEQ ID NO: 84)] | 50 to 75 | –
21 | GLATIRAYL [GLATIRAYL (SEQ ID NO: 86)] | 50 to 75 | –
22 | GLFDNRSGLPEA [GLFDNRSGLPEA (SEQ ID NO: 88)] | 50 to 75 | –
23 | HLDEVFLEL [HLDEVFLEL (SEQ ID NO: 90)] | 50 to 75 | –
24 | HLSSTTAQV [HLSSTTAQV (SEQ ID NO: 91)] | 20 to 50 | –
25 | KLLFEIASA [KLLFEIASA (SEQ ID NO: 92)] | 50 to 75 | –
26 | KLLGSLQLL [KLLGSLQLL (SEQ ID NO: 93)] | ≥ 75 | –
27 | LLAGQATTAYF [LLAGQATTAYF (SEQ ID NO: 94)] | 50 to 75 | –
28 | LLLNENESLFL [LLLNENESLFL (SEQ ID NO: 96)] | 50 to 75 | –
29 | LLNFSPGNL [LLNFSPGNL (SEQ ID NO: 97)] | 10 to 20 | –
30 | MLQDGIARL [MLQDGIARL (SEQ ID NO: 98)] | 50 to 75 | –
31 | RLIRTIAAI [RLIRTIAAI (SEQ ID NO: 100)] | 50 to 75 | –

Second part, the binder after the results:

Row | peptide exchange yield [%] | binding result | Binder
32 | ≥ 75 | – | FLREYFERL [FLREYFERL (SEQ ID NO: 53)]
33 | ≥ 75 | – | ILVEVDLVQA [ILVEVDLVQA (SEQ ID NO: 55)]
34 | 50 to 75 | – | QLAPFLPQL [QLAPFLPQL (SEQ ID NO: 58)]
35 | ≥ 75 | – | SLLNKDLSL [SLLNKDLSL (SEQ ID NO: 61)]
36 | ≥ 75 | – | FLVEVSNDV [FLVEVSNDV (SEQ ID NO: 64)]
37 | ≥ 75 | – | KLAPIPVEL [KLAPIPVEL (SEQ ID NO: 66)]
38 | ≥ 75 | – | QIAAFLFTV [QIAAFLFTV (SEQ ID NO: 68)]
39 | ≥ 75 | – | VLIEILQKA [VLIEILQKA (SEQ ID NO: 70)]
40 | ≥ 75 | – | NLLGMIFSM [NLLGMIFSM (SEQ ID NO: 7)]
41 | ≥ 75 | – | SLDLRPLEV [SLDLRPLEV (SEQ ID NO: 74)]
42 | 50 to 75 | – | AALKYIPSV [AALKYIPSV (SEQ ID NO: 75)]
43 | ≥ 75 | – | ALADLVPVDVVV [ALADLVPVDVVV (SEQ ID NO: 76)]
44 | ≥ 75 | – | ALLDVSNNYGI [ALLDVSNNYGI (SEQ ID NO: 77)]
45 | 50 to 75 | – | AMEEAVAQV [AMEEAVAQV (SEQ ID NO: 78)]
46 | 50 to 75 | – | YLFDEIDQA [YLFDEIDQA (SEQ ID NO: 80)]
47 | 20 to 50 | – | FIFSYITAV [FIFSYITAV (SEQ ID NO: 81)]
48 | 50 to 75 | – | FLIDGSSSV [FLIDGSSSV (SEQ ID NO: 82)]
49 | 50 to 75 | – | GLAPAEVVVATVA [GLAPAEVVVATVA (SEQ ID NO: 85)]
50 | 20 to 50 | – | GLFARIIMI [GLFARIIMI (SEQ ID NO: 87)]
51 | 50 to 75 | – | GLTALHVAV [GLTALHVAV (SEQ ID NO: 89)]
52 | 50 to 75 | – | FLLDLDPLL [FLLDLDPLL (SEQ ID NO: 9)]
53 | 50 to 75 | – | LLFDLIPVVSV [LLFDLIPVVSV (SEQ ID NO: 95)]
54 | 20 to 50 | – | QLYDGATALFL [QLYDGATALFL (SEQ ID NO: 99)]

Reference: US20170296640A1 (IMMATICS BIOTECHNOLOGIES, published 2017)
